Measured values reported in publication PMC2643056 (Molecular cell, 2008).

Target: T1, His6-Dsk2 (S. cerevisiae, UniProt P48510 1-373)
T1 sequence (looked up): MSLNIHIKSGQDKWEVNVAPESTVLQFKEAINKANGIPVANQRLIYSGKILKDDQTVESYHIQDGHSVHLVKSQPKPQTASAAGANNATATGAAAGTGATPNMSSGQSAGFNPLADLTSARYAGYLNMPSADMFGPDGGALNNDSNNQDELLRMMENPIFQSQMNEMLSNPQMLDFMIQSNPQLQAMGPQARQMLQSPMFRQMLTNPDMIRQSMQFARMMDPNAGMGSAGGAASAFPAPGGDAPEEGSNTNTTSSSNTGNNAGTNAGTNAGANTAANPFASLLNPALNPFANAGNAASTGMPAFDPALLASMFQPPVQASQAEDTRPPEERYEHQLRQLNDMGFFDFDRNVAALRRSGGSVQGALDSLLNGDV
Assay: far-Western, overlay or dot blot

B1: recombinant Rpn10, full length (natural protein, S. cerevisiae, UniProt P38886 1-268, looked up)
chain: MVLEATVLVIDNSEYSRNGDFPRTRFEAQIDSVEFIFQAKRNSNPENTVGLISGAGANPRVLSTFTAEFGKILAGLHDTQIEGKLHMATALQIAQLTLKHRQNKVQHQRIVAFVCSPISDSRDELIRLAKTLKKNNVAVDIINFGEIEQNTELLDEFIAAVNNPQEETSHLLTVTPGPRLLYENIASSPIILEEGSSGMGAFGGSGGDSDANGTFMDFGVDPSMDPELAMALRLSMEEEQQRQERLRQQQQQQDQPEQSEQPEQHQDK
B1: binds.
